Target: GST-GATA1 (UniProt P15976 1-413)
Test: EMSA; GATA1 antibody used for supershift; Pull-down: probes immobilised on M-280 beads in 5 mM Tris-HCl pH 7.5, 0.5 mM EDTA, 1 M NaCl; 100 ug nuclear extract; washes in binding buffer (composition not given) with 0.5% NP40. EMSA as described previously (ref. 9); temperature not stated
Conditions: protein: commercial; tags: GST; label: 5'-biotin; blunt

Chain of GST-GATA1 (P15976 whole entry): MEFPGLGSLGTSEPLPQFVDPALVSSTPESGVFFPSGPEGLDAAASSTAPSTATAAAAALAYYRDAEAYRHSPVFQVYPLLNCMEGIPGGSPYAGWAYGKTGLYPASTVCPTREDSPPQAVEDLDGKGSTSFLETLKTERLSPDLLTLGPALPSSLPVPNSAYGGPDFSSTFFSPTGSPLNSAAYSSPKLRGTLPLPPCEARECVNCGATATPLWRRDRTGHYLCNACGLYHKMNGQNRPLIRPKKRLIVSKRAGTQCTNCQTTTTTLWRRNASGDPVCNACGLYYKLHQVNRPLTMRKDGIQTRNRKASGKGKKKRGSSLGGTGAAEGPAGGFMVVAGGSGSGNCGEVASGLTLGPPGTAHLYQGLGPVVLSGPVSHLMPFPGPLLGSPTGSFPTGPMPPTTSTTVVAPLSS

B1: GATA1/2 WT probe (dsDNA)
DNA 1: CTGCCGCCGATTGGTGCTCGC
DNA 2: GCGAGCACCAATCGGCGGCAG
- binding result: binds

Source: paper PMC5946489, “Inactivation of the tight junction gene CLDN11 by aberrant hypermethylation modulates tubulins polymerization and promotes cell migration in nasopharyngeal carcinoma”
